Laboratory results: US10500274B2, “Methods for reducing viral load in HIV-1 infected patients” (CytoDyn Inc., priority 2008, dated 2019)

Key:
[1] = system: R5 HIV-1; assay: Phase 2 trial of subcutaneous PRO 140: HIV-1 RNA; format: in vivo, human
Experimental: More particularly, dosing comprises 162 mg q1wx3, 324 mg q1wx3, 324 mg q2wx2. Subcutaneous PRO 140 offers a long-acting, self-administered therapy for HIV infection.
Subjects were followed for a total of 58 days for safety and antiviral effects. Entry criteria included: HIV-1 RNA >5,000 copies/mL, R5 virus, […], no antiretroviral therapy <12 weeks.

[2] = Phase 1b clinical study: safety, anti-PRO 140 antibodies, plasma RANTES
Description: Subjects were ≥18 years of age with plasma HIV-1 RNA ≥5,000 copies/mL, R5-tropic HIV-1 only, CD4^+ cells ≥250/μL with no documented nadir ≤200/μL and no antiretroviral therapy for at least 3 months. Major exclusion criteria included pregnancy, history of AIDS-defining illness, the presence of X4-tropic HIV-1, and acute or symptomatic viral hepatitis within the prior 6 months.
Evaluations of clinical subjects included physical examinations, 12-lead electrocardiograms, vital signs, concomintant medications, and adverse events reporting. Clinical laboratory tests evaluated serum chemistries, hematology and urinalysis.
Samples below the LLOQ were assigned a value of zero. PK metrics were estimated using non-compartmental methods. The area under the serum concentration-time curve from time zero to infinity (AUC) was calculated using the linear trapezoidal rule. The terminal serum half-life was calculated by regression of the terminal portion of the concentration-time curve. […] Sera were tested at a 1:10 dilution initially, and positive samples were serially diluted for titer analysis.
CCR5^+ and CD4^+ lymphocytes were measured by flow cytometry. […] CTC5-PE data were used to determine the absolute number of circulating CCR5^+ lymphocytes pre- and post-treatment. RANTES was measured in platelet-depleted plasma using a validated ELISA.

B1: PRO 140: humanized IgG4,κ anti-CCR5 mAb, humanized version of the murine mAb PA14 (antibody, chains of the INN, looked up, V domains shown)
VH: EVQLVESGGGLVKPGGSLRLSCAASGYTFSNYWIGWVRQAPGKGLEWIGDIYPGGNYIRNNEKFKDKTTLSADTSKNTAYLQMNSLKTEDTAVYYCGSSFGSNYVFAWFTYWGQGTLVTVSS
VL: DIVMTQSPLSLPVTPGEPASISCRSSQRLLSSYGHTYLHWYLQKPGQSPQLLIYEVSNRFSGVPDRFSGSGSGTDFTLKISRVEAEDVGVYYCSQSTHVPLTFGQGTKVEIK
mean reduction in viral load at day 22 ([1]; SC 162 mg weekly): 0.75 log 10 | % subjects with ≥1 log10 drop ([1]; SC 162 mg, Days 1, 8, 15): 55% | Max viral load reduction (mean) ([1]; SC 162 mg, Days 1, 8, 15): 0.99 log10 | Max viral load reduction: Range ([1]; SC 162 mg, Days 1, 8, 15): −0.23 to −1.92 log10 | Mean duration in days ≥1 log10 drop ([1]; SC 162 mg, Days 1, 8, 15): 14 days | log10 change in HIV-1 RNA: Day 22 Mean ([1]; SC 162 mg, Days 1, 8, 15): −0.75 log10 | log10 change in HIV-1 RNA: Day 22 Median ([1]; SC 162 mg, Days 1, 8, 15): −0.77; p = 0.0072 log10 | maximum log10 change in HIV-1 RNA: Mean ([1]; SC 162 mg, Days 1, 8, 15): −0.99 log10 | maximum log10 change in HIV-1 RNA: Median ([1]; SC 162 mg, Days 1, 8, 15): −1.06; p = 0.0093 log10 | mean reduction in viral load at day 22 ([1]; SC 324 mg bi-weekly): 1.20 log 10 | mean reduction in viral load at day 22 ([1]; SC 324 mg weekly): 1.51 log 10 | % subjects with ≥1 log10 drop ([1]; SC 324 mg, Days 1, 8, 15): 73% | Max viral load reduction (mean) ([1]; SC 324 mg, Days 1, 8, 15): 1.65 log10 | Max viral load reduction: Range ([1]; SC 324 mg, Days 1, 8, 15): −0.76 to −2.50 log10 | Mean duration in days ≥1 log10 drop ([1]; SC 324 mg, Days 1, 8, 15): 20 days | log10 change in HIV-1 RNA: Day 22 Mean ([1]; SC 324 mg, Days 1, 8, 15): −1.51 log10 | log10 change in HIV-1 RNA: Day 22 Median ([1]; SC 324 mg, Days 1, 8, 15): −1.50; p < 0.0001 log10 | maximum log10 change in HIV-1 RNA: Mean ([1]; SC 324 mg, Days 1, 8, 15): −1.65 log10 | maximum log10 change in HIV-1 RNA: Median ([1]; SC 324 mg, Days 1, 8, 15): −1.74; p < 0.0001 log10 | % subjects with ≥1 log10 drop ([1]; SC 324 mg, Days 1, 15): 67% | Max viral load reduction (mean) ([1]; SC 324 mg, Days 1, 15): 1.37 log10 | Max viral load reduction: Range ([1]; SC 324 mg, Days 1, 15): −0.35 to −3.53 log10 | Mean duration in days ≥1 log10 drop ([1]; SC 324 mg, Days 1, 15): 18 days | log10 change in HIV-1 RNA: Day 22 Mean ([1]; SC 324 mg, Days 1, 15): −1.20 log10 | log10 change in HIV-1 RNA: Day 22 Median ([1]; SC 324 mg, Days 1, 15): −1.03; p < 0.0001 log10 | maximum log10 change in HIV-1 RNA: Mean ([1]; SC 324 mg, Days 1, 15): −1.37 log10 | maximum log10 change in HIV-1 RNA: Median ([1]; SC 324 mg, Days 1, 15): −1.16; p = 0.0001 log10 | continuation of suppression following the last dose ([1]; SC 324 mg, days 1, 8 and 15): 7 days | serious adverse events / dose-limiting toxicity ([2]; human, in vivo): No drug-related serious adverse events or dose-limiting toxicity was reported | effect on QTc intervals / electrocardiogram ([2]; single IV 0.5, 2 and 5 mg/kg): no clinically relevant drug-related effect on QTc intervals
